Molecular target: anti-PfTRAP mAb AKBR-7 (mouse)
Assay: BLI; Octet QKe; antibodies in culture supernatants immobilized on anti-Mouse IgG Fc Capture biosensors; antigen serially diluted (1–1000 nM) in 10x Kinetics Buffer (PBS + 0.1% BSA, 0.02% Tween-20, 0.05% sodium azide); fit to the 1:1 binding model

B1: Plasmodium falciparum TRAP ectodomain (PfTRAP) (domain or fragment)
chain: RDVQNNIVDEIKYSEEVCNDQVDLYLLMDCSGSIRRHNWVNHAVPLAMKLIQQLNLNDNAIHLYVNVFSNNAKEIIRLHSDASKNKEKALIIIRSLLSTNLPYGRTNLTDALLQVRKHLNDRINRENANQLVVILTDGIPDSIQDSLKESRKLSDRGVKIAVFGIGQGINVAFNRFLVGCHPSDGKCNLYADSAWENVKNVIGPFMKAVCVEVEKTASCGVWDEWSPCSVTCGKGTRSRKREILHEGCTSEIQEQCEEERCPPKWEPLDVPDEPEDDQPRPRGDNSSVQKPEENIIDNNPQEPSPNPEEGKDENPNGFDLDENPENPPNPDIPEQKPNIPEDSEKEVPSDVPKNPEDDREENFDIPKKPENKHDNQNNLPNDKSDRNIPYSPLPPKVLDNERKQSDPQSQDNNGNRHVPNSEDRETRPHGRNNENRSYNRKYNDTPKHPEREEHEKPDNNKKKGESDNKYK
modifications: site-specific biotinylation using BirA ligase, when required
B1 gave a Kd of 0.15 nM.

Reference: PMC9135708
